Assays:
[1] = target: VN-TFIIEβ (TFIIEβ fused to the N-terminal fragment of Venus, pCS2VNm9) (Drosophila); experiment: split reporter (BiFC, NanoBiT); BiFC with split Venus (VC and VN fusions) in co-transfected HEK293 cells, read 48 h after transfection by confocal microscopy; percent = Venus-fluorescent cells in one hundred mCherry-positive cells, three independent experiments
[2] = target: VN-TFIIEβ (TFIIEβ fused to the N-terminal fragment of Venus, pCS2VNm9); experiment: BiFC; conditions: cell culture; pCAG-Cherry co-transfected as a control
[3] = target: EXD (BiFC partner in HEK293 cells) (Drosophila) (UniProt P40427); experiment: split reporter (BiFC, NanoBiT); BiFC with split Venus (VC and VN fusions) in co-transfected HEK293 cells, read 48 h after transfection by confocal microscopy; percent = Venus-fluorescent cells in one hundred mCherry-positive cells, three independent experiments
Sequence of UniProt P40427 (P40427 whole entry, the tested form may be a part): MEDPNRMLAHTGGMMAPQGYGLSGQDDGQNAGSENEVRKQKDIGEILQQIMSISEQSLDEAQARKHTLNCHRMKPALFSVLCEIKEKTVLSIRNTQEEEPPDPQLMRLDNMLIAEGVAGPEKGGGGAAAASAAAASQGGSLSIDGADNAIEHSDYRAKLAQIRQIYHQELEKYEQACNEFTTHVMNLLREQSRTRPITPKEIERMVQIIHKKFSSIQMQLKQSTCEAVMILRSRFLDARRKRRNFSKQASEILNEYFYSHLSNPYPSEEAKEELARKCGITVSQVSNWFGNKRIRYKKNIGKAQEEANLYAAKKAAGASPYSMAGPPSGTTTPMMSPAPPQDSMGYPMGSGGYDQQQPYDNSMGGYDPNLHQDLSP

Sequence of VN-TFIIEβ (TFIIEβ fused to the N-terminal fragment of Venus, pCS2VNm9) (Drosophila) (O96881 entry or part of it): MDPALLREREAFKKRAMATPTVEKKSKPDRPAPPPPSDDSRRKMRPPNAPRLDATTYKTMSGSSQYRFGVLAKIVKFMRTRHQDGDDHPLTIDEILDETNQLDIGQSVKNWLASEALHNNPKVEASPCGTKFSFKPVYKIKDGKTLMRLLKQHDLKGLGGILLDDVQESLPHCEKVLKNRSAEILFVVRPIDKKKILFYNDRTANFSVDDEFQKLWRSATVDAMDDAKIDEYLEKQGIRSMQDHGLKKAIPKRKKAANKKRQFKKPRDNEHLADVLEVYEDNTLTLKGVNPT

Row | percent of transfected (mCherry-positive) cells with BiFC signal [1] [%] | Substance | further results
1 | 78 | VC-Antp (wild-type Antennapedia fused to the C-terminal fragment of Venus, pCS2VC155) (from UniProt P02833 1-378) (natural protein) | –
2 | – | VC-Antp (wild-type Antennapedia fused to the C-terminal fragment of Venus, pCS2VC155) (from UniProt P02833) H36R | response [2]: 32%
3 | – | VC-Antp (wild-type Antennapedia fused to the C-terminal fragment of Venus, pCS2VC155) (from UniProt P02833) I32A | response [2]: 29%
4 | – | VC-Antp (wild-type Antennapedia fused to the C-terminal fragment of Venus, pCS2VC155) (from UniProt P02833) I32L | response [2]: 31%
5 | 75 | VC-AntpHD (Antp homeodomain construct fused to the C-terminal fragment of Venus, pCS2VC155) (domain or fragment) | –
6 | 76 | VC-Antp^AAAA (Antp with the YPWM motif replaced with alanines) (from UniProt P02833 1-378) (natural protein) | –
7 | – | VC-Antp^I32A-H36A (in HEK293 cells) (natural protein) | percent of transfected (mCherry-positive) cells with BiFC signal [3]: 79%
8 | 13 | VC-Antp^I32L-H36R (natural protein) | –
9 | 74 | VC-AntpΔH1 (Antp with helix 1 of the HD deleted) (from UniProt P02833 1-378) (natural protein) | –
10 | 15 | VC-AntpΔH1-2 (Antp with helices 1 and 2 of the HD deleted) (from UniProt P02833 1-378) (natural protein) | –
11 | 26 | VC-AntpΔHD (Antp with the homeodomain deleted) (from UniProt P02833 1-378) (natural protein) | –

— article PMC6188894
